# Patent US20230220008A1 (Bicycle, published 2023)
# Starred links: 1 amine or outer side, 2 acyl side, 3 side chain; linkers in the order of their positions; H or OH if unused. Positions of bridges follow the written chain, without caps; N, C: chain ends. Non-standard residues stand in square brackets, D forms with d. No end group written: not given here. BCN = bicyclo[6.1.0]non-4-yn-9-ylmethyl carbonate as carbamate, click handle; TATA = O=C(CC[*:1])N1CN(C(=O)CC[*:2])CN(C(=O)CC[*:3])C1; tBuAla = CC(C)(C)C[C@H](N)C(=O)O; Nle = CCCC[C@H](N)C(=O)O; PYA = propargyl-acid
# B1: BCY8925 (peptide)
# peptide: Ac-ACIE[dK](PYA)GQYCF[dA]DPY[Nle]CA
# modifications: linker 2-9-16 via TATA
# notes: Bicyclic peptide monomer; also called Monomer 13A
# B2: BCY8935 (peptide)
# peptide: XACIEEGQYCFXDPYXCA
# modifications: (PYA)-A-CiIEEGQYCiiF[D-A]DPY[Nle]Ciii-A; Ci, Cii, Ciii cyclised on TATA
# notes: Bicyclic peptide monomer; also called Monomer 10A
# B3: BCY8926 (peptide)
# peptide: Ac-ACIEK(PYA)GQYCF[dA]DPY[Nle]CA
# modifications: linker 2-9-16 via TATA
# notes: Bicyclic peptide monomer; also called Monomer 14A
# B4: BCY8150 (peptide)
# peptide: Ac-ACIEK(BCN)GQYCFADPY[Nle]CA
# modifications: linker 2-9-16 via TATA; not fully specified; also: tetramer of four peptide units on central hinge A (TET) via spacer S1A n=10
# B5: BCY8581 (peptide)
# peptide: XACIEEGQYCFADPYXCA
# modifications: not fully specified; (PYA)-A-CiIEEGQYCiiF[D-A]DPY[Nle]Ciii-A; Cys on TATA scaffold
# B6: BCY8583 (peptide)
# peptide: XACIEEGQYCFADPYXCA
# modifications: not fully specified; (PYA)-A-CiIEEGQYCiiF[D-A]DPY[Nle]Ciii-A; Cys on TATA scaffold
# B7: BCY8584 (peptide)
# peptide: XACIEEGQYCFADPYXCA
# modifications: not fully specified; (PYA)-A-CiIEEGQYCiiF[D-A]DPY[Nle]Ciii-A; Cys on TATA scaffold
# B8: BCY8582 (peptide)
# peptide: XACIEEGQYCFADPYXCA
# modifications: not fully specified; (PYA)-A-CiIEEGQYCiiF[D-A]DPY[Nle]Ciii-A; Cys on TATA scaffold
# B9: BCY8151 (peptide)
# peptide: Ac-ACIEEGK(BCN)YCFADPY[Nle]CA
# modifications: linker 2-9-16 via TATA; not fully specified; also: trimer of three peptide units on central hinge B (TCA) via spacer S1A n=10
# B10: BCY8095 (peptide)
# peptide: Ac-ACIK(BCN)EGQYCFADPY[Nle]CA
# modifications: linker 2-9-16 via TATA
# notes: Bicyclic peptide monomer; also called Monomer 3-BCN
# B11: BCY7845 (peptide)
# peptide: Ac-ACIEEGK(PYA)YCFADPY[Nle]CA
# modifications: linker 2-9-16 via TATA; not fully specified; also: tetramer of four peptide units on central hinge A (TET) via spacer S1A n=10
# B12: BCY8141 (peptide)
# peptide: XACIEEGQYCFADPYXCA
# modifications: (BCN)-A-CiIEEGQYCiiFADPY(Nle)Ciii-A; Ci, Cii, Ciii cyclised on TATA
# notes: Bicyclic peptide monomer; also called Monomer 1-BCN
# B13: BCY8142 (peptide)
# peptide: Ac-ACIEK(BCN)GQYCFADPY[Nle]CA
# modifications: linker 2-9-16 via TATA
# notes: Bicyclic peptide monomer; also called Monomer 4-BCN
# B14: BCY7746 (peptide)
# peptide: Ac-ACIEEGQYCK(PYA)ADPY[Nle]CA
# modifications: linker 2-9-16 via TATA
# notes: Bicyclic peptide monomer; also called Monomer 7A
# B15: BCY7741 (peptide)
# peptide: ACIEEGQYCFADPYXCX
# modifications: Ac-A-CiIEEGQYCiiFADPY(Nle)Ciii-Dap(PYA); Ci, Cii, Ciii cyclised on TATA
# notes: Bicyclic peptide monomer; also called Monomer 2A
# B16: BCY7748 (peptide)
# peptide: ACIEEGQYCFADPYXCA
# modifications: Ac-A-CiIEEGQYCiiFADPYK(PYA)Ciii-A; Ci, Cii, Ciii cyclised on TATA
# notes: Bicyclic peptide monomer; also called Monomer 9A
# B17: BCY8144 (peptide)
# peptide: Ac-ACIEEGQYCK(BCN)ADPY[Nle]CA
# modifications: linker 2-9-16 via TATA
# notes: Bicyclic peptide monomer; also called Monomer 7-BCN
# B18: BCY7743 (peptide)
# peptide: Ac-ACIEK(PYA)GQYCFADPY[Nle]CA
# modifications: linker 2-9-16 via TATA
# notes: Bicyclic peptide monomer; also called Monomer 4A
# B19: BCY8097 (peptide)
# peptide: ACIEEGQYCFADPYXCA
# modifications: Ac-A-CiIEEGQYCiiFADPYK(BCN)Ciii-A; Ci, Cii, Ciii cyclised on TATA
# notes: Bicyclic peptide monomer; also called Monomer 9-BCN
# B20: BCY7745 (peptide)
# peptide: Ac-ACIEEGK(PYA)YCFADPY[Nle]CA
# modifications: linker 2-9-16 via TATA
# notes: Bicyclic peptide monomer; also called Monomer 6A
# B21: BCY8143 (peptide)
# peptide: Ac-ACIEEGK(BCN)YCFADPY[Nle]CA
# modifications: linker 2-9-16 via TATA
# notes: Bicyclic peptide monomer; also called Monomer 6-BCN
# B22: BCY8927 (peptide)
# peptide: Ac-C[tBuAla]PK(PYA)[dA]PYCFADPY[Nle]CA
# modifications: linker 1-8-15 via TATA
# notes: Bicyclic peptide monomer; also called Monomer 11A
# B23: BCY7740 (peptide)
# peptide: XACIEEGQYCFADPYXCA
# modifications: (PYA)-A-CiIEEGQYCiiFADPY(Nle)Ciii-A; Ci, Cii, Ciii cyclised on TATA
# notes: Bicyclic peptide monomer; also called Monomer 1A
# B24: BCY7747 (peptide)
# peptide: Ac-ACIEEGQYCFADK(PYA)Y[Nle]CA
# modifications: linker 2-9-16 via TATA
# notes: Bicyclic peptide monomer; also called Monomer 8A
# Target: T1, Recombinant human CD137 (R&D systems), biotinylated (human, UniProt Q07011 24-186, biotinylated with EZ-Link Sulfo-NHS-LC-LC-Biotin)
# T1 construct: Bought protein; Captured on a streptavidin chip; also called human CD137 protein; 4-1BB
# T1 sequence (Q07011 24-186 limits assumed): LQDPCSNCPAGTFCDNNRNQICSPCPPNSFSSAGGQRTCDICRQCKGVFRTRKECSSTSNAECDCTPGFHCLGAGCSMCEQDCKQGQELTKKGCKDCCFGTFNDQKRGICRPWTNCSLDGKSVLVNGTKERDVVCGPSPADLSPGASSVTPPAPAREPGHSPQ
# Test: SPR (Biacore), biotinylated human CD137 captured on streptavidin chip
row,Binder,binding result
1,B1,no binding (tested: No binding up to 5 µM)
2,B2,no binding (tested: No binding up to 5 µM)
3,B3,no binding (tested: No binding up to 5 µM)

# Target: T2, CD137 on Jurkat reporter cells (Promega) (UniProt Q07011 24-255, limits assumed)
# T2 sequence (Q07011 24-255 limits assumed): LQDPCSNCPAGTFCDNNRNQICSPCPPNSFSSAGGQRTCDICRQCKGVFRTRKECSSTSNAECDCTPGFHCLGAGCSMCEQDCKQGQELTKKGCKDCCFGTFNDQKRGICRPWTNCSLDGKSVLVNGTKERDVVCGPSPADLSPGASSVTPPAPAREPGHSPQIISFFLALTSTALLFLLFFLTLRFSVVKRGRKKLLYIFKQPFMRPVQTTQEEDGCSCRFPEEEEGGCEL
# Test: cell-based or functional assay
Binder,Average Fold EC50 Improvement relative to CD137L,Average Relative Fold Induction relative to CD137L,Fold Induction over Background
XACIEEGQYCFADPYXCA (not fully specified; (BCN)-A-CiIEEGQYCiiFADPY(Nle)Ciii-A; Cys on TATA scaffold) [BCY8149],140 fold,0.93 fold,
B4,4.14 fold,0.77 fold,
B5,,,< 2 fold
B6,0.031 fold,3.14 fold,
Ac-ACIEK(PYA)GQYCF[dA]DPY[Nle]CA (linker 2-9-16 via TATA; not fully specified) [BCY8937],,,< 2 fold
B7,,,< 2 fold
B8,,,< 2 fold
B9,213 fold,0.49 fold,

# Target: T1, Recombinant human CD137 (R&D systems), …
# Test: SPR (Biacore), biotinylated human CD137 captured on streptavidin chip, peptide as analyte, 25°C; BCY8095 (Monomer 3-BCN), a separate monomer number from BCY7742
# Experimental: (§1) Biacore experiments were performed to determine kₐ (M⁻¹s⁻¹), kd (s⁻¹), KD (nM) values of monomeric peptides binding to human CD137 protein. […] The protein was desalted to remove uncoupled biotin using spin columns into PBS.
# For analysis of peptide binding, a Biacore T200 or a Biacore 3000 instrument was used with a XanTec CMD500D chip. Streptavidin was immobilized on the chip using standard amine-coupling chemistry at 25° C. with HBS-N(10 mM HEPES, 0.15 M NaCl, pH 7.4) as the running buffer. Briefly, the carboxymethyl dextran surface was activated with a 7 min injection of a 1:1 ratio of 0.4 M 1-ethyl-3-(3-dimethylaminopropyl) carbodiimide hydrochloride (EDC)/0.1 M N-hydroxy succinimide (NHS) at a flow rate of 10 μl/min. For capture of streptavidin, the protein was diluted to 0.2 mg/ml in 10 mM sodium acetate (pH 4.5) and captured by injecting 120 μl of onto the activated chip surface. Residual activated groups were blocked with a 7 min injection of 1 M ethanolamine (pH 8.5) and biotinylated CD137 captured to a level of 270-1500 RU. Buffer was changed to PBS/0.05% Tween 20 and a dilution series of the peptides was prepared in this buffer with a final DMSO concentration of 0.5%. The top peptide concentration was 500 nM with 6 further 2-fold or 3-fold dilutions. The SPR analysis was run at 25° C. at a flow rate of 90 μl/min with 60 seconds association and 900 seconds dissociation. […]
row,Binder,Kd
1,B10,0.685 nM

# Target: T2, CD137 on Jurkat reporter cells (Promega)
# Test: cell-based or functional assay
# Remark: another data set of the same source
Binder,Fold Induction over Background,Average EC50,Average fold induction,Average Fold EC50 Improvement relative to BCY7845,Average Relative Fold Induction relative to BCY7845
Ac-C[tBuAla]PE[dK](PYA)PYCFADPY[Nle]CA (linker 1-8-15 via TATA; not fully specified) [BCY8948],< 2 fold,,,,
Ac-ACIEK(PYA)GQYCFADPY[Nle]CA (linker 2-9-16 via TATA; not fully specified) [BCY8961],< 2 fold,,,,
Ac-ACIEK(PYA)GQYCFADPY[Nle]CA (linker 2-9-16 via TATA; not fully specified) [BCY8957],< 2 fold,,,,
Ac-ACIEK(PYA)GQYCFADPY[Nle]CA (linker 2-9-16 via TATA; not fully specified) [BCY8962],< 2 fold,,,,
Ac-ACIEK(PYA)GQYCF[dA]DPY[Nle]CA (linker 2-9-16 via TATA; not fully specified) [BCY9113],< 2 fold,,,,
Ac-ACIEK(PYA)GQYCFADPY[Nle]CA (linker 2-9-16 via TATA; not fully specified) [BCY8965],< 2 fold,,,,
Ac-ACIEK(PYA)GQYCFADPY[Nle]CA (linker 2-9-16 via TATA; not fully specified) [BCY8959],< 2 fold,,,,
B11,,0.57 nM,6.3 fold,,
Ac-C[tBuAla]PE[dK](PYA)PYCFADPY[Nle]CA (linker 1-8-15 via TATA; not fully specified) [BCY8947],,,,1.33 fold,0.62 fold

# Target: T1, Recombinant human CD137 (R&D systems), …
# Test: SPR (Biacore), biotinylated human CD137 captured on streptavidin chip, peptide as analyte, 25°C
# Experimental: as §1
# For analysis of peptide binding, a Biacore T200 or a Biacore 3000 instrument was used with a XanTec CMD500D chip. Streptavidin was immobilized on the chip using standard amine-coupling chemistry at 25° C. with HBS-N(10 mM HEPES, 0.15 M NaCl, pH 7.4) as the running buffer. Briefly, the carboxymethyl dextran surface was activated with a 7 min injection of a 1:1 ratio of 0.4 M 1-ethyl-3-(3-dimethylaminopropyl) carbodiimide hydrochloride (EDC)/0.1 M N-hydroxy succinimide (NHS) at a flow rate of 10 μl/min. For capture of streptavidin, the protein was diluted to 0.2 mg/ml in 10 mM sodium acetate (pH 4.5) and captured by injecting 120 μl of onto the activated chip surface. Residual activated groups were blocked with a 7 min injection of 1 M ethanolamine (pH 8.5) and biotinylated CD137 captured to a level of 270-1500 RU. Buffer was changed to PBS/0.05% Tween 20 and a dilution series of the peptides was prepared in this buffer with a final DMSO concentration of 0.5%. The top peptide concentration was 500 nM with 6 further 2-fold or 3-fold dilutions. The SPR analysis was run at 25° C. at a flow rate of 90 μl/min with 60 seconds association and 900 seconds dissociation. After each cycle a regeneration step (10 μl of 10 mM glycine pH 2) was employed. Data were corrected for DMSO excluded volume effects as needed. All data were double-referenced for blank injections and reference surface using standard processing procedures and data processing and kinetic fitting were performed using Scrubber software, version 2.0c (BioLogic Software). Data were fitted using simple 1:1 binding model allowing for mass transport effects where appropriate.
row,Binder,Kd
1,B12,57.8 nM
2,B13,321 nM
3,B14,260 nM
4,B15,122 nM
5,B16,264 nM
6,B17,66.7 nM
7,B18,101 nM
8,B19,99.4 nM
9,B20,63.1 nM
10,"Ac-C[tBuAla]PE[dK](PYA)PYCFADPY[Nle]CA (linker 1-8-15 via TATA, also called Monomer 12A) [BCY8928]",11.4 nM
11,B21,112 nM
12,B22,12.3 nM
13,B23,88 nM
14,B24,361 nM
